Experimental data published in publication PMC4699573 (Molecular bioSystems, 2016).

Target: T1, EcoR124I (Escherichia coli, UniProt P10484+P10485+P10486)
T1 sequence (P10485 1-404): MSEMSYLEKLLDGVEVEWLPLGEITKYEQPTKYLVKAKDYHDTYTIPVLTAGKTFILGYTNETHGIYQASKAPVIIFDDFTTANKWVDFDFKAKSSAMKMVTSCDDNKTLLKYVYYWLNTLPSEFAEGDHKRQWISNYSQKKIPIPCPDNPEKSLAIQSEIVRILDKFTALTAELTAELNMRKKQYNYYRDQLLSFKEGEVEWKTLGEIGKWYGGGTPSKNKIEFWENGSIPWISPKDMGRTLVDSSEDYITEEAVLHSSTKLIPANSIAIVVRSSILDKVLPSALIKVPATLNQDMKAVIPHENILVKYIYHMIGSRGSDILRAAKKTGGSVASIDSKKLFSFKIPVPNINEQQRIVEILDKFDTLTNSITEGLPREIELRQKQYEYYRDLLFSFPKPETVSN
T1 sequence (P10484 1-520): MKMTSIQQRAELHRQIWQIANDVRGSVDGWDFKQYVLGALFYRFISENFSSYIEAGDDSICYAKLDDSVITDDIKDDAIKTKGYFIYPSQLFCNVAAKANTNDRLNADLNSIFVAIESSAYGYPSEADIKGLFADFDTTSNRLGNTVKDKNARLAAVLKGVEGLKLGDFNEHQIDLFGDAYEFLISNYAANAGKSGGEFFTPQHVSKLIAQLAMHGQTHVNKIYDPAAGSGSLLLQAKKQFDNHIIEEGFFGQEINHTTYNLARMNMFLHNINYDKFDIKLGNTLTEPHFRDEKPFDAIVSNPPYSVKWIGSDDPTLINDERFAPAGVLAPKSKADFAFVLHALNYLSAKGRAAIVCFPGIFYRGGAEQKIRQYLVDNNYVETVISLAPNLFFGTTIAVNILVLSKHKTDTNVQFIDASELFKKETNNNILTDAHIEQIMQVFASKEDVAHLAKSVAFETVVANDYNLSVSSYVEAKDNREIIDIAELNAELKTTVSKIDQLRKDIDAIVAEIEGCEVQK
T1 sequence (P10486 1-1038): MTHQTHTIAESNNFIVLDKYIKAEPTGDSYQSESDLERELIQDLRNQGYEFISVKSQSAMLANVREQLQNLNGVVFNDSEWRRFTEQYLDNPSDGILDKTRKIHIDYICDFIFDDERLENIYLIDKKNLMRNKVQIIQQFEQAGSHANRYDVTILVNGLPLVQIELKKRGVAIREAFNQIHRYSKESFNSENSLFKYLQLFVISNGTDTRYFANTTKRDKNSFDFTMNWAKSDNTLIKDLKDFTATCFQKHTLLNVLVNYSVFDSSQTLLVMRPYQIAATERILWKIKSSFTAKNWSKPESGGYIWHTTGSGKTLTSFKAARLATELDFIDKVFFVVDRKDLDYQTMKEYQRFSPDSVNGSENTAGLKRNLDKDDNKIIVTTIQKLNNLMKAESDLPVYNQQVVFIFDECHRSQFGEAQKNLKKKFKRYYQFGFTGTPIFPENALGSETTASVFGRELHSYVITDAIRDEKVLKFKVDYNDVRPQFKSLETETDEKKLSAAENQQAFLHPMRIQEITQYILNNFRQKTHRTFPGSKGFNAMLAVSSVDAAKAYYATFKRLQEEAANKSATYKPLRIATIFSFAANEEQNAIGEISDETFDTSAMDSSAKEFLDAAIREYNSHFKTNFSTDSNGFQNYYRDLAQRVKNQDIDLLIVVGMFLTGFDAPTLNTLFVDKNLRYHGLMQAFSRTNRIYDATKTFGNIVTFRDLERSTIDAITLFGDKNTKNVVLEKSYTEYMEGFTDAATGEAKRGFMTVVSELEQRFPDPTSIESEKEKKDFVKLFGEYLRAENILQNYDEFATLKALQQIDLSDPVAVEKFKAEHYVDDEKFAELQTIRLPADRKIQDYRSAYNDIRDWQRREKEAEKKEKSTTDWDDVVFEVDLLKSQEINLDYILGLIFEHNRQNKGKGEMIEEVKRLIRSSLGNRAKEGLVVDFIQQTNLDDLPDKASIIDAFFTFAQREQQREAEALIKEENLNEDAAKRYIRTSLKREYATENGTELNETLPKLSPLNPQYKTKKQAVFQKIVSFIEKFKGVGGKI
Experiment: Coupled spectrophotometric ATPase assay
Type: biochemical
Settings: EcoR124I pre-incubated with protein, reaction initiated by scDNA; Figure S1

## Ocr: anti-restriction protein of bacteriophage T7 (overcome classical restriction), mimics B-DNA
  Concentration at which ATP hydrolysis of EcoR124I is retarded / abolished: 100 nM
